Experiment [1] deals with T1, Human CLEC12A on cells (HL60, CLEC12A-CHO-K1, primary blood, bone marrow and AML cells) (human, UniProt Q5QGZ9 1-265).
T1 sequence: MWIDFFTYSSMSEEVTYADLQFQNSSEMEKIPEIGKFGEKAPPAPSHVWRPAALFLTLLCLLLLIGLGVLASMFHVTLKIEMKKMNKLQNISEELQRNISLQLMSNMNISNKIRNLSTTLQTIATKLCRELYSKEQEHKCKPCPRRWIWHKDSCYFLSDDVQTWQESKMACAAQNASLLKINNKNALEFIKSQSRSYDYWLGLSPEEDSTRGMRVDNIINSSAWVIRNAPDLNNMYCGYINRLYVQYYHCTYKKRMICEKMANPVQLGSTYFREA
Briefly: cell-based or functional assay.

In experiment [2] the target is T2, Recombinant purified CLEC12A-His (Sino Biologicals) (human, UniProt Q5QGZ9 65-265).
T2 construct: Bought protein; 11896-H07H; not shown: His tag
T2 sequence: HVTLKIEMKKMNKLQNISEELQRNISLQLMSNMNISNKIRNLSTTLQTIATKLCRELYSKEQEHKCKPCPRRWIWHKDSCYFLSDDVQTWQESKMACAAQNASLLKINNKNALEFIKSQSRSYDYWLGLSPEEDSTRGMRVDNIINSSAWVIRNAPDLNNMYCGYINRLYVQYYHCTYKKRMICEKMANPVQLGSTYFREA
Briefly: SPR (Biacore T100); antibody captured on CM5 chip through mouse anti-human IgG, recombinant CLEC12A-His run over the surface. In general terms: SPR reads the build-up and loss of mass on a sensor chip optically.

The target of experiment [3] is T1, Human CLEC12A on cells (HL60, …). Briefly: cell-based or functional assay. This is another data set of the same source.
Experiment [4] has the same target. Briefly: cell-based or functional assay. This is another data set of the same source.

B1: Antibody MF4327×MF5196, full length human IgG1 CLEC12AxCD3 bispecific antibody with silenced Fc effector function (bispecific antibody, V domains shown)
VH 1: QVQLVQSGAEVKKPGASVKVSCKASGYTFTSYYMHWVRQAPGQGLEWMGIINPSGGSTSYAQKFQGRVTMTRDTSTSTVYMELSSLRSEDTAVYYCAKGTTGDWFDYWGQGTLVTVSS
VH 2: QVQLVQSGGGVVQPGRSLRLSCVASGFTFSSYGMHWVRQAPGKGLEWVAAIWYNARKQDYADSVKGRFTISRDNSKNTLYLQMNSLRAEDTAVYYCTRGTGYNWFDPWGQGTLVTVSS
VL: not shown
notes: Full length human IgG1 with a common light chain; The CH3 domains are engineered for heterodimerisation, and changes in the CH2 regions remove Fc effector function; also called CLEC12AxCD3 bispecific IgG; Fcγ receptor-silenced antibody MF4327×MF5196
As for B1, in experiment [1], the “median fold T cell expansion in primary AML samples, day 10” value was determined as 48 fold. In addition, the Kd (as a rule, the concentration at which binding is half-saturated) in experiment [2] worked out at 3 nM. In addition, in experiment [3], the “fold T cell expansion, primary AML sample of patient 10, day 10” value was found to be 25 fold; the “fold T cell expansion, primary AML sample of patient 11, day 10” value was found to be 6 fold; the “fold T cell expansion, primary AML sample of patient 12, day 10” value stood at 37 fold; the “fold T cell expansion, primary AML sample of patient 13, day 10” value came to 139 fold. In experiment [3], the “fold T cell expansion, primary AML sample of patient 14, day 10 (1,000 ng/mL)” value was 64 fold; the “fold T cell expansion, primary AML sample of patient 15, day 10 (1,000 ng/mL)” value is 25 fold; the “fold T cell expansion, primary AML sample of patient 16, day 10” value worked out at 15 fold; the “fold T cell expansion, primary AML sample of patient 17, day 10” value amounted to 98 fold. Besides, in experiment [3], the “fold T cell expansion, primary AML sample of patient 18, day 10” value stood at 20 fold; the “fold T cell expansion, primary AML sample of patient 19, day 10” value amounted to 60 fold; the “fold T cell expansion, primary AML sample of patient 20, day 10 (1,000 ng/mL)” value stood at 157 fold. Besides, in experiment [4], the “CD25 on CD4 T cells, mean EC50 (HL60 cytotoxicity assay)” value is 0.351 µg/mL; the “CD25 on CD8 T cells, mean EC50 (HL60 cytotoxicity assay)” value was determined as 0.0957 µg/mL; the “CD69 on CD4 T cells, mean EC50 (HL60 cytotoxicity assay)” value was found to be 0.156 µg/mL; the “CD69 on CD8 T cells, mean EC50 (HL60 cytotoxicity assay)” value stood at 0.0444 µg/mL. The “HL60 cell lysis, mean EC50” value in experiment [4] amounted to 0.0682 µg/mL.

These data come from patent US20240262912A1 (MERUS N V, published 2024).
